Data: publication PMC10003648, “Polymer-Degrading Enzymes of Pseudomonas chloroaphis PA23 Display Broad Substrate Preferences” (International Journal of Molecular Sciences, 2023)

System: CCCCCCCC(=O)Oc1ccc([N+](=O)[O-])cc1
Test: purified protein
Format: biochemical, Pseudomonas chlororaphis
Settings: optimal assay conditions (optimum pH 6.0, 50 °C), 0.1-3.0 mmol/L substrate

LIP4 (Pseudomonas chlororaphis) was tested, and the Km was 333 µM.
